# According to patent publication US20230340128A1 (Xencor, published 2023):
# Legend:
# human mesothelin (MSLN) [1] = target: T1, human mesothelin (MSLN) (human, UniProt Q13421 296-580, limits assumed); test: BLI (Octet), bsAb in 1+1 Fab-scFv-Fc format
# T1 construct: Antigen of the Octet KD values
# human mesothelin (MSLN) [2] = target: T1, human mesothelin (MSLN); test: KD quoted in the FIG. 25 legend; Octet (BLI) per FIGS. 20-21
# human CD28 = target: T2, human CD28 (human, UniProt P10747 19-152, limits assumed); test: label in the legend box: nominal affinity of the CD28 binding domain (paragraph 422 calls such label values KD); method not stated on the sheet
# T2 construct: also called Cluster of Differentiation 28; Tp44
# human mesothelin (MSLN) [3] = target: T1, human mesothelin (MSLN); test: label in the legend box: nominal affinity of the MSLN binding domain (paragraph 422 calls such label values KD); method not stated on the sheet
Kd (human mesothelin (MSLN) [2]) [nM],Kd (human CD28) [nM],Kd (human mesothelin (MSLN) [3]) [nM],Binder,also measured
~12.8,–,–,XENP32563 (bispecific antibody) chain 1: QVQLVQSGAEVKKPGASVKVSCKASGYTFTSYWMHWVRQAPGQGLEWMGMIHPNSDNTIYYEKFQGRVTMTVDKSISTAYMELSRLRSDDTAVYYCAIIITPVVPKFDYWGQGTLVTVSSASTKGPSVFPLAPSSKSTSGGTAALGCLVKDYFPEPVTVSWNSGALTSGVHTFPAVLQSSGLYSLSSVVTVPSSSLGTQTYICNVNHKPSDTKVDKKVEPKSCDKTHTCPPCPAPPVAGPSVFLFPPKPKDTLMISRTPEVTCVVVDVKHEDPEVKFNWYVDGVEVHNAKTKPREEEYNSTYRVVSVLTVLHQDWLNGKEYKCKVSNKALPAPIEKTISKAKGQPREPQVYTLPPSREEMTKNQVSLTCDVSGFYPSDIAVEWESDGQPENNYKTTPPVLDSDGSFFLYSKLTVDKSRWEQGDVFSCSVMHEALHNHYTQKSLSLSPGK chain 2: not shown chain 3: DIVMTQSPDSLAVSLGERATINCKASHDVGTYVAWYQQKPGQSPKLLIYWASTRHTGVPDRFTGSGSGTDFTLTISSLQAEDVAVYFCQQYSSYPLTFGAGTKLEIKRTVAAPSVFIFPPSDEQLKSGTASVVCLLNNFYPREAKVQWKVDNALQSGNSQESVTEQDSKDSTYSLSSTLTLSKADYEKHKVYACEVTHQGLSSPVTKSFNRGEC,Kd (human mesothelin (MSLN) [1]): 12.8 nM; Response (human mesothelin (MSLN) [1]): 0.898; koff (human mesothelin (MSLN) [1]): 0.00672 s⁻¹; kon (human mesothelin (MSLN) [1]): 527000 M⁻¹ s⁻¹
10.2,–,–,XENP32948 (bispecific antibody) chain 1: QVQLVQSGAEVKKPGASVKVSCKASGYTFTSYWMHWVRQAPGQGLEWMGMIHPNSDNTIYYQKFQGRVTMTVDKSISTAYMELSRLRSDDTAVYYCAIIITPVVPKFDYWGQGTLVTVSSASTKGPSVFPLAPSSKSTSGGTAALGCLVKDYFPEPVTVSWNSGALTSGVHTFPAVLQSSGLYSLSSVVTVPSSSLGTQTYICNVNHKPSDTKVDKKVEPKSCDKTHTCPPCPAPPVAGPSVFLFPPKPKDTLMISRTPEVTCVVVDVKHEDPEVKFNWYVDGVEVHNAKTKPREEEYNSTYRVVSVLTVLHQDWLNGKEYKCKVSNKALPAPIEKTISKAKGQPREPQVYTLPPSREEMTKNQVSLTCDVSGFYPSDIAVEWESDGQPENNYKTTPPVLDSDGSFFLYSKLTVDKSRWEQGDVFSCSVMHEALHNHYTQKSLSLSPGK chain 2: QVQLVQSGAEVKKPGASVKVSCKASGYTFTSYWMHWVRQAPGQGLEWMGMIHPNSDNTIYYQKFQGRVTMTVDKSISTAYMELSRLRSDDTAVYYCAIIITPVVPKFDYWGQGTLVTVSSASTKGPSVFPLAPSSKSTSGGTAALGCLVKDYFPEPVTVSWNSGALTSGVHTFPAVLQSSGLYSLSSVVTVPSSSLGTQTYICNVNHKPSNTKVDKKVEPKSCGGGGSGGGGSQAVVTQEPSLTVSPGGTVTLTCGSSTGAVTTSNYANWVQQKPGKSPRGLIGGTNKRAPGVPARFSGSLLGGKAALTISGAQPEDEADYYCALWYSNHWVFGGGTKLTVLGKPGSGKPGSGKPGSGKPGSEVQLVESGGGLVQPGGSLRLSCAASGFTFSTYAMNWVRQAPGKGLEWVGRIRSKANNYATYYADSVKGRFTISRDDSKNTLYLQMNSLRAEDTAVYYCVRHGNFGDSYVSWFAYWGQGTLVTVSSGGGGSGGGGSKTHTCPPCPAPPVAGPSVFLFPPKPKDTLMISRTPEVTCVVVDVKHEDPEVKFNWYVDGVEVHNAKTKPREEQYNSTYRVVSVLTVLHQDWLNGKEYKCKVSNKALPAPIEKTISKAKGQPREPQVYTLPPSREQMTKNQVKLTCLVKGFYPSDIAVEWESNGQPENNYKTTPPVLDSDGSFFLYSKLTVDKSRWQQGNVFSCSVMHEALHNHYTQKSLSLSPGK chain 3: DIVMTQSPDSLAVSLGERATINCKASHDVGTSVAWYQQKPGQSPKLLIYWASTRHTGVPDRFTGSGSGTDFTLTISSLQAEDVAVYFCQQYYSYPLTFGAGTKLEIKRTVAAPSVFIFPPSDEQLKSGTASVVCLLNNFYPREAKVQWKVDNALQSGNSQESVTEQDSKDSTYSLSSTLTLSKADYEKHKVYACEVTHQGLSSPVTKSFNRGEC,–
–,180,9,"XENP44477 (bispecific antibody, also called XENP44477 MSLN (9 nM) x CD28 (180 nM) 2+1 Fab2-Fc x scFv-Fc) heavy: QVQLVQSGAEVKKPGASVKVSCKASGYTFTSYWMHWVRQAPGQGLEWMGWIHPNSDNTIYYEKFQGRVTMTVDKSISTAYMELSRLRSDDTAVYYCAIIITPVVPKFDYWGQGTLVTVSSASTKGPSVFPLAPSSKSTSGGTAALGCLVKDYFPEPVTVSWNSGALTSGVHTFPAVLQSSGLYSLSSVVTVPSSSLGTQTYICNVNHKPSDTKVDKKVEPKSCGGGGSGGGGSQVQLVQSGAEVKKPGASVKVSCKASGYTFTSYWMHWVRQAPGQGLEWMGWIHPNSDNTIYYEKFQGRVTMTVDKSISTAYMELSRLRSDDTAVYYCAIIITPVVPKFDYWGQGTLVTVSSASTKGPSVFPLAPSSKSTSGGTAALGCLVKDYFPEPVTVSWNSGALTSGVHTFPAVLQSSGLYSLSSVVTVPSSSLGTQTYICNVNHKPSDTKVDKKVEPKSCDKTHTCPPCPAPPVAGPSVFLFPPKPKDTLMISRTPEVTCVVVDVKHEDPEVKFNWYVDGVEVHNAKTKPREEEYNSTYRVVSVLTVLHQDWLNGKEYKCKVSNKALPAPIEKTISKAKGQPREPQVYTLPPSREEMTKNQVSLTCDVSGFYPSDIAVEWESDGQPENNYKTTPPVLDSDGSFFLYSKLTVDKSRWEQGDVFSCSVLHEALHSHYTQKSLSLSPGK scFv-Fc: not shown light 1: DIVMTQSPDSLAVSLGERATINCKASHDVGTSVAWYQQKPGQSPKLLIYWASTRHTGVPDRFTGSGSGTDFTLTISSLQAEDVAVYFCQQYSSYPLTFGAGTKLEIKRTVAAPSVFIFPPSDEQLKSGTASVVCLLNNFYPREAKVQWKVDNALQSGNSQESVTEQDSKDSTYSLSSTLTLSKADYEKHKVYACEVTHQGLSSPVTKSFNRGEC light 2: DIVMTQSPDSLAVSLGERATINCKASHDVGTSVAWYQQKPGQSPKLLIYWASTRHTGVPDRFTGSGSGTDFTLTISSLQAEDVAVYFCQQYSSYPLTFGAGTKLEIKRTVAAPSVFIFPPSDEQLKSGTASVVCLLNNFYPREAKVQWKVDNALQSGNSQESVTEQDSKDSTYSLSSTLTLSKADYEKHKVYACEVTHQGLSSPVTKSFNRGEC",–
–,180,9,"XENP44471 (bispecific antibody, also called XENP44471 MSLN (9 nM) x CD28 (180 nM) 2+1 Fab2-scFv-Fc) heavy 1: QVQLVQSGAEVKKPGASVKVSCKASGYTFTSYWMHWVRQAPGQGLEWMGWIHPNSDNTIYYEKFQGRVTMTVDKSISTAYMELSRLRSDDTAVYYCAIIITPVVPKFDYWGQGTLVTVSSASTKGPSVFPLAPSSKSTSGGTAALGCLVKDYFPEPVTVSWNSGALTSGVHTFPAVLQSSGLYSLSSVVTVPSSSLGTQTYICNVNHKPSDTKVDKKVEPKSCDKTHTCPPCPAPPVAGPSVFLFPPKPKDTLMISRTPEVTCVVVDVKHEDPEVKFNWYVDGVEVHNAKTKPREEEYNSTYRVVSVLTVLHQDWLNGKEYKCKVSNKALPAPIEKTISKAKGQPREPQVYTLPPSREEMTKNQVSLTCDVSGFYPSDIAVEWESDGQPENNYKTTPPVLDSDGSFFLYSKLTVDKSRWEQGDVFSCSVLHEALHSHYTQKSLSLSPGK heavy 2: not shown light 1: DIVMTQSPDSLAVSLGERATINCKASHDVGTSVAWYQQKPGQSPKLLIYWASTRHTGVPDRFTGSGSGTDFTLTISSLQAEDVAVYFCQQYSSYPLTFGAGTKLEIKRTVAAPSVFIFPPSDEQLKSGTASVVCLLNNFYPREAKVQWKVDNALQSGNSQESVTEQDSKDSTYSLSSTLTLSKADYEKHKVYACEVTHQGLSSPVTKSFNRGEC light 2: DIVMTQSPDSLAVSLGERATINCKASHDVGTSVAWYQQKPGQSPKLLIYWASTRHTGVPDRFTGSGSGTDFTLTISSLQAEDVAVYFCQQYSSYPLTFGAGTKLEIKRTVAAPSVFIFPPSDEQLKSGTASVVCLLNNFYPREAKVQWKVDNALQSGNSQESVTEQDSKDSTYSLSSTLTLSKADYEKHKVYACEVTHQGLSSPVTKSFNRGEC",–
–,180,90,"XENP44473 (bispecific antibody, also called XENP44473 MSLN (90 nM) x CD28 (180 nM) 2+1 Fab2-scFv-Fc) heavy 1: QVQLVQSGAEVKKPGASVKVSCKASGYTFTSYWMHWVRQAPGQGLEWMGWIHPNSDNTIYYEKFQGRVTMTVDKSISTAYMELSRLRSDDTAVYYCAIIITPVVPKFDYWGQGTLVTVSSASTKGPSVFPLAPSSKSTSGGTAALGCLVKDYFPEPVTVSWNSGALTSGVHTFPAVLQSSGLYSLSSVVTVPSSSLGTQTYICNVNHKPSDTKVDKKVEPKSCDKTHTCPPCPAPPVAGPSVFLFPPKPKDTLMISRTPEVTCVVVDVKHEDPEVKFNWYVDGVEVHNAKTKPREEEYNSTYRVVSVLTVLHQDWLNGKEYKCKVSNKALPAPIEKTISKAKGQPREPQVYTLPPSREEMTKNQVSLTCDVSGFYPSDIAVEWESDGQPENNYKTTPPVLDSDGSFFLYSKLTVDKSRWEQGDVFSCSVLHEALHSHYTQKSLSLSPGK heavy 2: not shown light 1: DIVMTQSPDSLAVSLGERATINCKASHDVGQSVAWYQQKPGQSPKLLIYWASTRHTGVPDRFTGSGSGTDFTLTISSLQAEDVAVYFCQQYSSYPLTFGAGTKLEIKRTVAAPSVFIFPPSDEQLKSGTASVVCLLNNFYPREAKVQWKVDNALQSGNSQESVTEQDSKDSTYSLSSTLTLSKADYEKHKVYACEVTHQGLSSPVTKSFNRGEC light 2: DIVMTQSPDSLAVSLGERATINCKASHDVGQSVAWYQQKPGQSPKLLIYWASTRHTGVPDRFTGSGSGTDFTLTISSLQAEDVAVYFCQQYSSYPLTFGAGTKLEIKRTVAAPSVFIFPPSDEQLKSGTASVVCLLNNFYPREAKVQWKVDNALQSGNSQESVTEQDSKDSTYSLSSTLTLSKADYEKHKVYACEVTHQGLSSPVTKSFNRGEC",–
